Assay results: publication PMC8730436

Tested on: RplI (ribosomal large subunit protein L9) (Pseudomonas aeruginosa mPAO1)
Experiment: MST

-24 nt-exsA RNA
Kd: 0.529 µM
